Columns and labels:
Lsr2BD WT = Lsr2BD WT (Mycobacterium tuberculosis H37Rv, UniProt P9WIP7 66-112); test: fluorescence anisotropy; details: protein: recombinant; tags: 6xHis; blunt
Lsr2BD T112D = Lsr2BD T112D (Mycobacterium tuberculosis H37Rv, UniProt P9WIP7 66-112, T112D); test: fluorescence anisotropy; details: protein: recombinant, blunt
Lsr2 = Lsr2 (Mycobacterium tuberculosis H37Rv, UniProt P9WIP7 1-112); test: EMSA; 0.95-7.6 uM Lsr2; details: protein: recombinant; (pET15-TEV, Ni-NTA); chain copies: 2; blunt
Lsr2BD T112A = Lsr2BD T112A (Mycobacterium tuberculosis H37Rv, UniProt P9WIP7 66-112, T112A); test: fluorescence anisotropy; pH 7.5; 4 nM DNA; details: protein: recombinant; label: 5' Alexa Fluor 488; blunt

B1: GC-rich fragment (leuS MUT sequence), anisotropy (dsDNA)
DNA 1: AACTCGGCGAGGTCGGTCAG
DNA 2: CTGACCGACCTCGCCGAGTT
- binding result (Lsr2BD WT): no binding
- binding result (Lsr2BD T112D): no binding

B2: leuS MUT (dsDNA)
DNA 1: AACTCGGCGAGGTCGGTCAG
DNA 2: CTGACCGACCTCGCCGAGTT
- binding result (Lsr2): binds

B3: AT-rich 14-mer (dsDNA)
DNA 1: CGCGCATATATGCG
DNA 2: CGCATATATGCGCG
- binding result (Lsr2BD T112D; label: 5' Alexa Fluor 488): no binding
- Kd (Lsr2BD T112A): 20 ± 8 nM

Reference: publication PMC6906086
